From patent US20220332812A1, “TREATMENT METHODS FOR EYE DISORDERS” (University of Pittsburgh - of the Commonwealth System of …, priority 2019, published 2022)

How the values were obtained:
diabetic Nuc1 rats = experiment: retinal function by electroretinography (ERG) in diabetic Nuc1 rats; assay type: in vivo, rat; conditions: FIGS. 20A-20B
Description: Therefore, βA1-crystallin is a first of its kind inhibitor that can be used as a therapy for DR.

PTP1B [1] = biological target: T1, PTP1B (Homo sapiens, UniProt P18031); experiment: pull-down assay; assay type: binding
T1 sequence (P18031 1-435): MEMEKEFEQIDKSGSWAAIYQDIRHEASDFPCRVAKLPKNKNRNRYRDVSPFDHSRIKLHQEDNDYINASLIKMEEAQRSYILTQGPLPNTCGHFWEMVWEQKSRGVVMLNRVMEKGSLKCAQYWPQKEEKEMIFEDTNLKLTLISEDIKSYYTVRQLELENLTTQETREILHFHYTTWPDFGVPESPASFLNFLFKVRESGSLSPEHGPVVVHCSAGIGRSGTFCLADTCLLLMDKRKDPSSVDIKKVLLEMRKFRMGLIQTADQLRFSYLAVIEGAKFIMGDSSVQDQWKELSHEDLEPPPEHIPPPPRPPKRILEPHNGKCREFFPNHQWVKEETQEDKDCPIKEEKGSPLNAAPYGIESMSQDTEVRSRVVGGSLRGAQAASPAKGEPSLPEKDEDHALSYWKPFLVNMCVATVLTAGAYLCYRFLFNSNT

PTP1B [2] = biological target: T2, PTP1B (Rattus norvegicus, UniProt P20417); experiment: co-immunoprecipitation in astrocytes; conditions: wild-type astrocytes; binding lost in Nuc1 cells
T2 construct: endogenous in cells; host or cells: astrocytes from wild-type and Nuc1 rats
T2 sequence (P20417 1-432): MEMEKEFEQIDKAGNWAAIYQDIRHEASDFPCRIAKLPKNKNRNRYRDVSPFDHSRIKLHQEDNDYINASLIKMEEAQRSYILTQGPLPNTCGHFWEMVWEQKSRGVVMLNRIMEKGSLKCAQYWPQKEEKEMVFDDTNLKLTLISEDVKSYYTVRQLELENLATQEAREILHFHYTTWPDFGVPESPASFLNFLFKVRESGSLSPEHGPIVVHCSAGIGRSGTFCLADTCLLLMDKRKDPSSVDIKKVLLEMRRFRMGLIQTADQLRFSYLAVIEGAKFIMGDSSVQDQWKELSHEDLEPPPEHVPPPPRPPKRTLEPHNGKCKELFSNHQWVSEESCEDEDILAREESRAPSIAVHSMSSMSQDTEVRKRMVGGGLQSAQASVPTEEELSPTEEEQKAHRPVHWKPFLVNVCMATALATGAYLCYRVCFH

PTP1B [3] = biological target: T1, PTP1B; experiment: PTP activity kinetics, Lineweaver Burk plots; assay type: biochemical; conditions: FIG. 13
PTP1B [4] = biological target: T1, PTP1B; experiment: human proteome high-throughput array, βA3/A1-crystallin binding partners; parameters: purchased CDI Laboratories, Inc; conditions: human proteome high-throughput array (CDI Laboratories)
Dab2 = biological target: T3, Dab2 (Homo sapiens, UniProt P98082); experiment: HuProt human proteome microarray, LCN-2 binding partners; conditions: recombinant LCN-2 probed at 1 μg/mL, Z-score cutoff 6
T3 construct: purchased CDI NextGen Proteomics, MD, USA HuProt v3.1
T3 sequence (P98082 1-770): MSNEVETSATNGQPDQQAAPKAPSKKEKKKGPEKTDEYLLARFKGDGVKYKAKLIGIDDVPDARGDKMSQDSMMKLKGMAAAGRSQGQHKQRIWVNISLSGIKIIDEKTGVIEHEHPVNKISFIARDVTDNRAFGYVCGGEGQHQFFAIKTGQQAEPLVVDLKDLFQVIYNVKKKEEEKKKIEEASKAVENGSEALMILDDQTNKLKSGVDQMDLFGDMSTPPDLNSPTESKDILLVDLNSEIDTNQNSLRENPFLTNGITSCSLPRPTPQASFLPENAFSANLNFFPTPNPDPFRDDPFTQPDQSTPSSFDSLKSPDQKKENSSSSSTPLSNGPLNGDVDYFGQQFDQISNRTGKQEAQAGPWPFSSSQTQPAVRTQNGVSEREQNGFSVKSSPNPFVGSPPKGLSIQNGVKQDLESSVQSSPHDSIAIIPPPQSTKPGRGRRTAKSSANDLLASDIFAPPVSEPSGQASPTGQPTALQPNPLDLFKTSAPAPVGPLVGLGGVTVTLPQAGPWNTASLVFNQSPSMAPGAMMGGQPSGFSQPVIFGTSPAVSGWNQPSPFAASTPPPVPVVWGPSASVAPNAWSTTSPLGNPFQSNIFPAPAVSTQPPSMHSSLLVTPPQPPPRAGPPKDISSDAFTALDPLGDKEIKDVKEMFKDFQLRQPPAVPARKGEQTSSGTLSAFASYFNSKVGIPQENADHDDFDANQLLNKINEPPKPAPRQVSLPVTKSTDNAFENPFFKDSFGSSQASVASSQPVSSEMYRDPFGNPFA
Experimental: The human proteome microarray 2.0 analysis was performed as a paid service from CDI NextGen Proteomics, MD, USA. Recombinant LCN-2 was analyzed for protein-protein interaction profiling on the HuProt™ v3.1 human proteome array and the sample was probed on array plates at 1 μg/mL, with data analyzed using GenePix software. Hit identification was assessed as the ratio of median value of the foreground to the median of the surrounding background for each protein probe on the microarray, followed by normalization to the median value of all neighboring probes within the […] window size and represented as the significance of the probe binding signal difference from random noise (Z-Score). The cutoff Z-score was 6 in this study for the triplicate analysis; only protein interactions with a Z-score above 6 were considered.
The above-described observations prompted the further investigation of the possible molecular mechanisms by which neutrophils infiltrate into the retina and thereby contribute to the pathogenesis of AMD. It has previously been shown that LCN-2 regulates neutrophil chemotaxis and cell migration in cancer cells (Shao et al., J. Invest. Dermatol., 136, 1418-1428 (2016), and Du et al., Biochim. Biophys. Acta, 1853: 2240-2250 (2015)). […]

NOD-SCID mice [5] = experiment: sub-retinal injection in NOD-SCID mice, OCT; assay type: in vivo, mouse
Description: (§1) NOD-SCID mice (NOD.CB17-Prkdescid/J, Jackson Laboratories, USA, male, 4-5 weeks old) were used for the study. A large sample size, n=10, was taken to nullify any experimental anomaly. Mice were anaesthetized and sub-retinal injections of neutrophils from different experimental groups or recombinant LCN-2 protein were given as described previously (Maruotti et al., Proc. Natl. Acad. Sci. USA., 112: 10950-10955 (2015)). Seven days after treatment, the NOD-SCID mice were anaesthetized by intraperitoneal injection of a ketamine and xylazine mixture and then subjected to Fundus imaging along with OCT analysis using the Bioptigen Envisu R2210 system. OCT images were analyzed on optical sections (100 sections per retina) from each eye ranging from −2.0 to +2.0 mm with respect to the optic nerve head (ONH) using the FIJI-ImageJ (NIH) plugin provided with the instrument along with Diver 2.4 software (Bioptigen). After the experiment, the animals were euthanized with CO2 gas and the eyes were harvested for further experiments. […]

NOD-SCID mice [6] = experiment: retinal sections of injected NOD-SCID mice: hematoxylin-eosin staining and immunofluorescence; assay type: in vivo, mouse
Experimental: Freshly enucleated eyes were fixed in 2% paraformaldehyde (PFA) for 10 min and then the anterior parts (cornea, lens, and attached iris pigmented epithelium) were removed. The resulting posterior eyecups were fixed in 2% PFA for 1 h at room temperature either for cryosections or RPE/retina flat mount. For cryosections, the eyecups were dehydrated through gradient sucrose solutions and embedded in OCT and for RPE/retina flatmounts, tissues were removed after the eyecup was quartered like a petaloid structure. The resulting eyecup was further cut radially into eight pieces from the optic nerve head to the periphery. Immunostaining on human/mouse retina sections or on retina/RPE flatmounts were performed by using appropriate primary antibody (1:100) and incubated at 4° C. overnight. The RPE/retina flatmounts or human or mouse retina sections were washed with 1×TBS thrice and then stained with appropriate secondary antibodies (1:300) with 1 μg/mL DAPI (Sigma Aldrich, USA) in the dark at room temperature for 2 h. The tissue sections or flatmounts were washed 6 times with 1×TBS. The tissues were mounted on a cover slip with DAKO mounting agent and then visualized under a confocal microscope (Zeiss LSM710, Switzerland).
as §1, with “Seven days after treatment, the NOD-SCID mice were anaesthetized by intraperitoneal injection of a ketamine and xylazine mixture and then subjected to Fundus imaging along with OCT analysis using the Bioptigen Envisu R2210 system.” left out, “(Bioptigen).” for “(Bioptigen). After the experiment, the animals were euthanized with CO2 gas and the eyes were harvested for further experiments.”

In the case of “PTP1B (pull-down assay and enzyme kinetics)”, the “Lineweaver Burk plots of PTP activity (Km and Vmax)” value (βA3/A1-crystallin) is reported as “Cryba1 treatment decreases the Km and Vmax of PTP activity”.

`CC(C)[C@@H](CC[C@@H](C)[C@H]1CC[C@H]2[C@@H]3[C@H](O)C[C@H]4C[C@@H](NCCCNCCCCNCCCN)CC[C@]4(C)[C@H]3CC[C@]12C)OS(=O)(=O)O` [MSI-1436] was tested, and the “retinal function (ERG)” value (diabetic Nuc1 rats) was “rescues retinal function abnormality”.

B1: βA3/A1-crystallin: two closely related polypeptides encoded by Cryba1, produced by two different translational start sites; biological inhibitor binding PTP1B (protein)
chain: METQTVQRELETLPTTKMAQTNPMPGSMGPWKITIYDQENFQGKRMEFTSSCPNVSERSFDNVRSLKVECGAWIGYEHTSFCGQQFILERGEYPRWDAWSGSNAYHIERLMSFRPICSANHKESKITIFEKENFIGRQWEICDDYPSLQAMGWFNNEVGSMKIQCGAWVCYQYPGYRGYQYILECDHHGGDYKHWREWGTHAQTSQIQSIRRIQQ
For B1, the “binding to PTP1B” value (PTP1B [1]) was “bound to PTP1B”, the “binding partner by co-immunoprecipitation” value (PTP1B [2]) was “PTP1B was a binding partner” and the “Km of PTP activity” value (PTP1B [3]) was “decreases”. For the same molecule, the “Vmax of PTP activity” value (PTP1B [3]) was “decreases”, the “mode of PTP1B inhibition” value (PTP1B [3]) was “uncompetitive inhibitor of PTP1B” and the “interaction with PTP1B” value (PTP1B [4]) was “interact with PTP1B”.

B2: recombinant LCN-2: recombinant Lipocalin-2 protein, full length LCN-2 cDNA expressed in E. coli (protein)
chain: QDSTQNLIPAPSLLTVPLQPDFRSDQFRGRWYVVGLAGNAVQKKTEGSFTMYSTIYELQENNSYNVTSILVRDQDQGCRYWIRTFVPSSRAGQFTLGNMHRYPQVQSYNVQVATTDYNQFAMVFFRKTSENKQYFKITLYGRTKELSPELKERFTRFAKSLGLKDDNIIFSVPTDQCIDN
In the case of B2, the “interaction with Dab2” value (Dab2) is reported as “interact with Dab2”, the “OCT retinal structure after injection of WT neutrophils pre-treated with the substance” value (NOD-SCID mice [5]; NOD-SCID mice injected subretinally, IFNλ 200 U/mL, conditioned media 1:1 diluted, LCN-2 10 pg/mL, FIG. 4(iii)-(v)) is reported as “apparent changes in the ONL and INL layers (asterisks), concomitant with severe loss of RPE and IS+OS layer” and the “OCT: alterations of retinal layers” value (NOD-SCID mice [5]; NOD-SCID mice, sub-retinal injection, after 7 days) is reported as “alterations in the RPE and photoreceptor (inner and outer segments) layers”. For the same molecule, the “hematoxylin-eosin staining of retinal sections” value (NOD-SCID mice [6]; NOD-SCID mice, relative to vehicle control or WT neutrophil injected mice) was “degenerative changes in the outer nuclear layer (ONL) along with photoreceptor layer”, the “thickness of retinal layers from sections by spider plot” value (NOD-SCID mice [6]; NOD-SCID mice, relative to vehicle or WT neutrophil-treated groups) was “severe loss or thinning of IS/OS and RPE layers” and the “rhodopsin and RPE 65 staining (photoreceptor and RPE cell loss)” value (NOD-SCID mice [6]; immunofluorescence, retina of NOD-SCID mice, with respect to controls) was “reduced staining”.
